Measured values published in patent publication US20240182596A1 (TUBULIS, published 2024).

Experiments:
[1] = biological target: T1, recombinant human FcγRI (FcγR-SmBiT, Lumit assay) (human, UniProt P12314 16-292); test: Lumit FcγRI Binding Immunoassay (Promega), competition with Tracer-LgBiT for FcγRI-SmBiT, falling luminescence means binding, n=1
T1 construct: Kit reagent (Promega); also called FcγRI (CD64); not shown: SmBiT label of the kit

[2] = biological target: T2, recombinant hexameric C1q complement protein (human) (human, UniProt P02745 23-245; P02746 28-253; P02747 29-245); test: HTRF Human C1q Binding Kit (Cisbio), HTRF ratio at 70 nM antibody with the diluent-only background subtracted
T2 construct: also called complement factor C1q

[3] = biological target: T3, HEK293 rat-NaPi2B-mCherry (Rattus norvegicus, UniProt Q9JJ09); test: flow cytometry on HEK293 cells stably expressing rat full-length NaPi2b-mCherry, Alexa-dye anti-human IgG H+L secondary antibody, MFI ratio, one-site specific binding fit; the Kd table prints no unit, the concentration axis is in nM
T3 construct: full-length mCherry fusion stably expressed on HEK293 cells; also called rat full-length NaPi2b-mCherry on HEK293 cells
T3 sequence (target on cells, looked up): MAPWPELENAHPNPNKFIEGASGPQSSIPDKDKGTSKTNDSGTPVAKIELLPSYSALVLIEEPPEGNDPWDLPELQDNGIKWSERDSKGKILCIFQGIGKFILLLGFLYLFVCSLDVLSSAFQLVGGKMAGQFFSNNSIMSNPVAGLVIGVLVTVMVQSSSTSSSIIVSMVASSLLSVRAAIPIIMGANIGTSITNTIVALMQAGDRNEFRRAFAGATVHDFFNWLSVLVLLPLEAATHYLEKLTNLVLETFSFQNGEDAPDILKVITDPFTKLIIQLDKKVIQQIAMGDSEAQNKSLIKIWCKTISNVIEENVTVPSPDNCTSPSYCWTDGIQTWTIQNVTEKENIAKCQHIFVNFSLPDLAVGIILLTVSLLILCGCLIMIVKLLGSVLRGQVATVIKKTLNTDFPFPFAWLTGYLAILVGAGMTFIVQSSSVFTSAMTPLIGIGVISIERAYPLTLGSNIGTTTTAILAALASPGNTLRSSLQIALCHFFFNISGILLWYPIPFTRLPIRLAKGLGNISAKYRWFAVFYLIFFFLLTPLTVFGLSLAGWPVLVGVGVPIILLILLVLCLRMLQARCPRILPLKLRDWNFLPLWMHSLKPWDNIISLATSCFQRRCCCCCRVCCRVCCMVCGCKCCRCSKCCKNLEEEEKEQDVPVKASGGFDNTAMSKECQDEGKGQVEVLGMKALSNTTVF

[4] = biological target: T4, human NaPi2b on NaPi2b-positive cell lines OVCAR-3 and HCC-78 (human, UniProt O95436 1-690); test: flow cytometry on OVCAR-3 cells, one-site fit
T4 construct: Endogenous protein
T4 sequence: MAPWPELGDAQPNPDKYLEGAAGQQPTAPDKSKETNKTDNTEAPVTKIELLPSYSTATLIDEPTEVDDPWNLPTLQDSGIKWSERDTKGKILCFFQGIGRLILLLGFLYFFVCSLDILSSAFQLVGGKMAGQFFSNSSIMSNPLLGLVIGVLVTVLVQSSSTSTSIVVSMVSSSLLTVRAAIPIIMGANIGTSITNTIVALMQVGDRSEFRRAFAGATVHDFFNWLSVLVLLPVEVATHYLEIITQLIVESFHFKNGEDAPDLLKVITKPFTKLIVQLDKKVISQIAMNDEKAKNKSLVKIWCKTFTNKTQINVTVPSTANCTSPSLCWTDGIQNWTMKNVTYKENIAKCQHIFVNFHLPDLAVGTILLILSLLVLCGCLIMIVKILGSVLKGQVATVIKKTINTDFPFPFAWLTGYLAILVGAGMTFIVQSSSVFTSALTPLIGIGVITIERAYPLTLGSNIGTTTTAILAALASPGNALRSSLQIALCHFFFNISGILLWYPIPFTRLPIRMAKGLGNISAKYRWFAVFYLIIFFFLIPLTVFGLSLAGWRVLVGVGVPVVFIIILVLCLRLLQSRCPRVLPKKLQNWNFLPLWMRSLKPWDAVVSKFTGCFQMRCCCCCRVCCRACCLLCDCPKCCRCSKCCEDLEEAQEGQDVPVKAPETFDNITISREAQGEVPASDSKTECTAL

[5] = biological target: T4, human NaPi2b on NaPi2b-positive cell …; test: flow cytometry on NaPi2b-positive OVCAR-3 cells, Alexa-dye-labeled anti-human IgG H+L secondary antibody, MFI ratio normalized to the non-specific binding control
[6] = biological target: T5, purified recombinant human Napi2b antigen consisting of Napi2b-extracellular-loop2 expressed as … (human, UniProt O95436 234-362, limits assumed); test: ELISA on the isolated immobilized protein; table column Binding KD (nmol/L), ELISA
T5 construct: Expressed in Expi-HEK293 cells; also called immobilized human NaPi2B; not shown: Fc part; 6-His tag
T5 sequence: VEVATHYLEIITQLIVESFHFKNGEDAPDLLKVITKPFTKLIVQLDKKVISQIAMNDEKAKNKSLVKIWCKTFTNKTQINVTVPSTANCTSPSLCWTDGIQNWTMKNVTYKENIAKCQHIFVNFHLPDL

T2 sequence (P02745 23-245 limits assumed, chain 1 of 3): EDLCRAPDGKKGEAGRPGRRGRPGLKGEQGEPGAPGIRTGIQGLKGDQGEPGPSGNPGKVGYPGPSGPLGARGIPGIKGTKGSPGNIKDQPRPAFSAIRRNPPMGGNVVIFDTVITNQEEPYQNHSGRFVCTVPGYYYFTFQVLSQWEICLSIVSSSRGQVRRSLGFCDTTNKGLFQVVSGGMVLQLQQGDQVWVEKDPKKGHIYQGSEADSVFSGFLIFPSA
T2 sequence (P02746 28-253 limits assumed, chain 2 of 3): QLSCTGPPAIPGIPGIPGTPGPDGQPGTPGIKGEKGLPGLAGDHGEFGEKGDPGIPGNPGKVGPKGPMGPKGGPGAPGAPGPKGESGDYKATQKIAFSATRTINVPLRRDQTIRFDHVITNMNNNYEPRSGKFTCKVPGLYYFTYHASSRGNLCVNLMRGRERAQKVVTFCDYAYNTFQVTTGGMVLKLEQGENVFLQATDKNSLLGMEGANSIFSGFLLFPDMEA
T2 sequence (P02747 29-245 limits assumed, chain 3 of 3): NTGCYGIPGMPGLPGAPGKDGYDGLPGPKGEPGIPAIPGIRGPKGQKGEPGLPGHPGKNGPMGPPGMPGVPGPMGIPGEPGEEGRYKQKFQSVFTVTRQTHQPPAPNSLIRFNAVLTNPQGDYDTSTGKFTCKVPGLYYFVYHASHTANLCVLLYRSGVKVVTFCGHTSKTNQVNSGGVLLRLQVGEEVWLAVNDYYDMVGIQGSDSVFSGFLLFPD
T1 sequence (P12314 16-292): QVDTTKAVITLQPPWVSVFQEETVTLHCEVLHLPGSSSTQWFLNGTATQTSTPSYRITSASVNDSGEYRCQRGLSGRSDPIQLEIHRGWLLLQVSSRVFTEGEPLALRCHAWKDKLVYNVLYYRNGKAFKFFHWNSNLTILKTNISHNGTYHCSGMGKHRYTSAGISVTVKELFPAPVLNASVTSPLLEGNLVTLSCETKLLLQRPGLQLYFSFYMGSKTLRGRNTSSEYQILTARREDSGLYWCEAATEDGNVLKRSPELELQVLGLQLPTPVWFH

binding result [1]: binds | binding result [2]: no binding (tested: 70 nM) | Kd [3]: 0.539 nM | Kd [4]: 0.44 µg/mL | EC50 (read off the curve) [5]: ~0.5 µg/mL | Kd [6]: 0.071 nM
B1: AV25 mAb, LALA-silenced (AV25 HC-LALA) (antibody, human IgG1, kappa, L234A L235A)
heavy: not shown
light: DIQMTQSPSSLSASVGDRVTITCSASQDIGNFLNWYQQKPGKTVKVLIYYASSLYSGVPSRFSGSGSGTDYTLTISSLQPEDFATYYCQQYSKLPLTFGQGTKLELKRTVAAPSVFIFPPSDEQLKSGTASVVCLLNNFYPREAKVQWKVDNALQSGNSQESVTEQDSKDSTYSLSSTLTLSKADYEKHKVYACEVTHQGLSSPVTKSFNRGEC
notes: also called unmodified AV25 mAb
